In patent publication US12215130 (dated 2025):
Where two headings read alike, the source gives them in different places.

Experiments:
Human serum albumin [1] = target: Human serum albumin (human)
Human serum albumin [2] = target: Human serum albumin (human); assay: BLI, pH 7.4
[3] = target: T1, Cynomolgus monkey serum albumin (cynomolgus monkey); assay: BLI, pH 5.5
T1 chain: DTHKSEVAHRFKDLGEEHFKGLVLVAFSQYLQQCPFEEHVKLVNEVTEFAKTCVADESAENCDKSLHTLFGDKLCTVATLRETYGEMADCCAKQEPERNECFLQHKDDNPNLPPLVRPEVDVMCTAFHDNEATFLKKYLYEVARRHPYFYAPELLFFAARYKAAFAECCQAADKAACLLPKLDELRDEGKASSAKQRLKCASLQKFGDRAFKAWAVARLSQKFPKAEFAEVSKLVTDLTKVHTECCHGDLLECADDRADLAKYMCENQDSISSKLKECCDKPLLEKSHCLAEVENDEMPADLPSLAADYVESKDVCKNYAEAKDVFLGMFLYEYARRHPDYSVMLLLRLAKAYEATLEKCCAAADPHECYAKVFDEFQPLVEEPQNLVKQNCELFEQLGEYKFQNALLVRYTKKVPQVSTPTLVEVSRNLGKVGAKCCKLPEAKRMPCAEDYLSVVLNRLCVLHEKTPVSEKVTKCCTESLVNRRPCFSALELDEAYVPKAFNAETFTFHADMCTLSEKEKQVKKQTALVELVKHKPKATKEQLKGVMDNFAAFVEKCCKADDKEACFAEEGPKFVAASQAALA

[4] = target: T1, Cynomolgus monkey serum albumin; assay: BLI, pH 7.4
Human serum albumin [5] = target: Human serum albumin (human); assay: BLI, pH 5.5

LAEAKVLANRELDKYGVSDYYKNLINNAKTVEGVKALIDEILAALP [G148-ABD-wt]
Kd (Human serum albumin [1]): ~1.2 nM

B1: AWT-P367 (antibody, V domains shown)
VH: QVQLVESGGGLVQPGGSLRLSCAASGSTWSINTLAWYRQAPGKQRDLVARISSGGSTHYADSVKGRFTVSRDNAENTLVLQMNSLKPEDTAVYYCYAQSTWYPPSWGQGTQVTVSS
Kd (Human serum albumin [2]): 29.6 nM
Kd [3]: 20.5 nM
Kd [4]: 18.9 nM
Kd (Human serum albumin [5]): 9.6 nM

B2: AWT-P610 (designed binder)
chain: QVQLVESGGGVVQPGGSLRLSCAASGFAFRGFGMSWVRQAPGKGLEWVSSINNGGSDTYYADSVKGRFTISRDNSKNTLYLQMNSLRAEDTAVYYCAIGGPGASPSGQGTQVTVSS
Kd (Human serum albumin [2]): 43 nM
Kd [3]: 47.1 nM
Kd [4]: 49.6 nM
Kd (Human serum albumin [5]): 39.8 nM
